Test results published in PMC8093215 (Nature Communications, 2021).
Like-named read-outs stand apart in the source and are kept apart here. Each block holds one binder with its values, some of them ahead of it. No end group written: not given here. trimethyl = trimethyl-lysine; dimethyl = dimethyl-lysine

Assays:
[1] = target: T1, bovine DNMT1 BAH1 domain (residues 725–897, residues 838–858 replaced by GAGSA) (bovine, UniProt Q24K09 725-837; Q24K09 859-897); assay: crystal structure; bDNMT1 BAH1 mixed with peptide 1:3; hanging drop, 13% PEG1500, 20 mM DTT, 200 mM L-proline, 4 °C; HEPES pH 7.5 (K20me3) or MES pH 6.5 (K20me2); details: both partners purified
T1 construct: bovine DNMT1 BAH1 domain, residues 725-837; linker that replaces residues 838-858 to facilitate crystallization; bovine DNMT1 BAH1 domain, residues 859-897; the last two beta-strands were domain-swapped during crystallization; also called bDNMT1_(BAH1); source: E. coli BL21(DE3) RIL, purified (Ni, ULP1 cleavage, Q XL, Ni, SEC); not shown: His6-SUMO, N-terminal, cleaved
T1 chain: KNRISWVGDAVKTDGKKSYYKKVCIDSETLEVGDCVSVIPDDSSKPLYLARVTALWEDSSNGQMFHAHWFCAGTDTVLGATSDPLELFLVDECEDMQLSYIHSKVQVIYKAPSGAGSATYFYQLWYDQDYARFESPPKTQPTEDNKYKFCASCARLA

[2] = target: T2, human DNMT1 BAH1 domain (residues 728-900), E821A (human, UniProt P26358 728-900, E821A); assay: ITC; 1 mM H4K20me peptide titrated over 0.1 mM hDNMT1 BAH1 or BAH2 domain; 25 mM Tris-HCl pH 7.5, 100 mM NaCl, 2 mM DTT; 5 °C; single-site binding mode; details: both partners purified
T2 construct: numbering on isoform 1 of 1616 amino acids; also called hDNMT1_(BAH1), E821A; source: E. coli BL21(DE3) RIL, purified as the wild-type protein; not shown: His6-SUMO, N-terminal, cleaved

[3] = target: T3, human DNMT1 BAH1 domain (residues 728-900), D768A (human, UniProt P26358 728-900, D768A); assay: as above; details: both partners purified
T3 construct: numbering on isoform 1 of 1616 amino acids; also called hDNMT1_(BAH1), D768A; source: E. coli BL21(DE3) RIL, purified as the wild-type protein; not shown: His6-SUMO, N-terminal, cleaved

[4] = target: T4, human DNMT1 BAH1 domain (residues 728-900), E819A (human, UniProt P26358 728-900, E819A); assay: as above; details: both partners purified
T4 construct: numbering on isoform 1 of 1616 amino acids; also called hDNMT1_(BAH1), E819A; source: E. coli BL21(DE3) RIL, purified as the wild-type protein; not shown: His6-SUMO, N-terminal, cleaved

[5] = target: T5, human ORC1 BAH domain (residues 1-185) (human, UniProt Q13415 1-185); assay: ITC; 0.45 mM H4K20me2 peptide titrated over 64 µM ORC1 BAH domain; 20 mM Tris-HCl pH 7.5, 100 mM NaCl, 1 mM DTT; 5 °C; single-site binding mode; details: both partners purified
T5 construct: human origin recognition complex subunit 1 (ORC1), BAH domain, residues 1-185
T5 sequence (looked up): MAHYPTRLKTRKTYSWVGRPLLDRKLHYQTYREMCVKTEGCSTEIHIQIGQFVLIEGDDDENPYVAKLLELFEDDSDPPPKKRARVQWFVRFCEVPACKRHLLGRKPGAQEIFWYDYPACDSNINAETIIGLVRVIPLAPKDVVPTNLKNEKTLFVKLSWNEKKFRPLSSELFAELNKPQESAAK

[6] = target: T6, human DNMT1 BAH1 domain, wild type, His6-MBP construct used for the autoinhibitory linker binding (human, UniProt P26358 728-900); assay: ITC; hDNMT1 BAH1 domain (WT, W796A or Mut^YW) with the autoinhibitory linker peptide hDNMT1(714-727); 5 °C; single-site binding mode; details: both partners purified
T6 construct: numbering on isoform 1 of 1616 amino acids; also called hDNMT1_(BAH1), WT; source: E. coli BL21(DE3) RIL, purified (Ni, ion exchange, TEV cleavage, Ni, SEC)

[7] = target: T7, hDNMT1 BAH1 domain from the His6-MBP vector (human, UniProt P26358 728-900); assay: ITC; hDNMT1 BAH1 (WT, W796A or Mut^YW) with the autoinhibitory linker peptide hDNMT1(714-727); 5 °C; single-site fit; details: both partners purified
T7 construct: numbering on isoform 1 of DNMT1 with 1616 amino acids; also called WT; source: E. coli BL21(DE3) RIL, purified (Ni, ion exchange, TEV cleavage, Ni, SEC); not shown: His6-MBP, N-terminal, cleaved

[8] = target: T8, MBP-tagged human DNMT1 residues 351-1600, M718A/H719A/K723A/K724A/K725A/Q726A (Mut^linker) (human, UniProt P26358 351-1600, M718A | H719A | K723A | K724A | K725A | Q726A); assay: ITC
T8 construct: numbering on isoform 1 of 1616 amino acids; also called MBP-Mut^linker; source: E. coli BL21(DE3) RIL, purified

[9] = target: T8, MBP-tagged human DNMT1 residues …; assay: ITC; remark: listed apart in the source

T3 sequence (P26358 728-900 D768A): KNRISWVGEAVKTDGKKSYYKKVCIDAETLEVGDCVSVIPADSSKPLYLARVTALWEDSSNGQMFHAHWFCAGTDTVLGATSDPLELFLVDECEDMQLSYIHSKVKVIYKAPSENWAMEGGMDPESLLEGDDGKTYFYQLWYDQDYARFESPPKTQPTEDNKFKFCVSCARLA
T8 sequence (P26358 351-1600 M718A/H719A/K723A/K724A/K725A/Q726A): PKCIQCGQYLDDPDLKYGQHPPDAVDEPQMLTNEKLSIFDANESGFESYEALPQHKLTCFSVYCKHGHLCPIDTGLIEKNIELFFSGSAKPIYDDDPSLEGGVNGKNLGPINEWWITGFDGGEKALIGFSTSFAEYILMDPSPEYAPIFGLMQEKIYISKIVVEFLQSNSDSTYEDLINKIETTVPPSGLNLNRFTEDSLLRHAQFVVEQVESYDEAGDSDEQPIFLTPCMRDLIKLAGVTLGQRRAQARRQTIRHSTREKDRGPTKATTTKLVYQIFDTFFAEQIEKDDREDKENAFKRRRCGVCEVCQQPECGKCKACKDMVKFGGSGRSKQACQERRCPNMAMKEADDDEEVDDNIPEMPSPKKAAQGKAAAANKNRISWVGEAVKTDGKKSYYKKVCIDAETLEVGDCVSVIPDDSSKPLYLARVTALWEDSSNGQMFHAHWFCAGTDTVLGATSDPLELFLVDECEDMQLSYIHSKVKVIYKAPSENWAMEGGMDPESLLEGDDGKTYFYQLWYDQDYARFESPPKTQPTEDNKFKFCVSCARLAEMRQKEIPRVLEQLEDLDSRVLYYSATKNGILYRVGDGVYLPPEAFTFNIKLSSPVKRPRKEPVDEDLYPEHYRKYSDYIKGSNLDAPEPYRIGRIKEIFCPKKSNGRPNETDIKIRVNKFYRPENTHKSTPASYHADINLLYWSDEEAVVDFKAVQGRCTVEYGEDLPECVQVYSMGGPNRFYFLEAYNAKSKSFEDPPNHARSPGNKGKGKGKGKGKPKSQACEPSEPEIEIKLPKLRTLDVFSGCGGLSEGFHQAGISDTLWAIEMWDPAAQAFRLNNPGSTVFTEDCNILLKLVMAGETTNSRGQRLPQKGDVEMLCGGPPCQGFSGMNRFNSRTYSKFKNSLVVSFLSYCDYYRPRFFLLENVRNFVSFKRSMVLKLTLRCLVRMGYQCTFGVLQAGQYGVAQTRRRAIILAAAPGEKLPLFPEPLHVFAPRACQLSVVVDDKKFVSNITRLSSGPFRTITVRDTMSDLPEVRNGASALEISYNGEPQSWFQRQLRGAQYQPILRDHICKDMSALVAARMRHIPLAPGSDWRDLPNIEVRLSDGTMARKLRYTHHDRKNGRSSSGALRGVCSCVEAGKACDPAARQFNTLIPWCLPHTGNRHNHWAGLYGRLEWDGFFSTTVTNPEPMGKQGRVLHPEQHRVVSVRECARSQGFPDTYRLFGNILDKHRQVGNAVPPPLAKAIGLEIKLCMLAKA
T2 sequence (P26358 728-900 E821A): as the sequence (P26358 728-900 D768A) above, with A41D, E94A counted along it
T4 sequence (P26358 728-900 E819A): as the sequence (P26358 728-900 D768A) above, with A41D, E92A counted along it
T6 sequence (P26358 728-900): as the sequence (P26358 728-900 D768A) above, with A41D counted along it
T7 sequence (P26358 728-900): as the sequence (P26358 728-900 D768A) above, with A41D counted along it

B1: H4(14–25)K20me3 peptide (peptide)
peptide: GAKRHRK(trimethyl)VLRDNY
notes: histone H4, residues 14-25; additional C-terminal tyrosine for spectroscopic quantification; also called H4K20me3 peptide; source: synthetic peptide (LifeTein)
binding result [1]: binds

B2: H4(14-25)K20me2 peptide (peptide)
peptide: GAKRHRK(dimethyl)VLRDNY
notes: histone H4, residues 14-25; additional C-terminal tyrosine for spectroscopic quantification; source: synthetic peptide (LifeTein)
Kd [2]: 35.4 µM
stoichiometry N [2]: 0.83
Kd [3]: 9.3 µM
stoichiometry N [3]: 0.92
Kd [4]: 12.3 µM
stoichiometry N [4]: 0.87
Kd [5]: 8.7 µM
stoichiometry N [5]: 0.75

B4: autoinhibitory linker peptide hDNMT1(714–727) (peptide)
peptide: SPKKMHQGKKKKQNY
notes: numbering on isoform 1 of DNMT1 with 1616 amino acids; additional C-terminal tyrosine for spectroscopic quantification; source: synthetic peptide (LifeTein)
Kd [7]: ~70 µM

B6: H4(14-25)K20me3 peptide (peptide)
peptide: GAKRHRKVLRDNY
modifications: trimethyl-lysine at K20
notes: as for B1
Kd [8]: 131 µM
Kd [2]: 91.7 µM
stoichiometry N [2]: 0.88
Kd [3]: 11.5 µM
stoichiometry N [3]: 0.82
Kd [4]: 9.4 µM
stoichiometry N [4]: 0.73
Kd [9]: 122 µM
stoichiometry N [9]: 1.45

More lines, now with the values ahead:

stoichiometry N [6]: 1
B3: hDNMT1(714-727) autoinhibitory linker peptide (peptide)
peptide: SPKKMHQGKKKKQNY
notes: numbering on isoform 1 of 1616 amino acids; additional C-terminal tyrosine for spectroscopic quantification; source: synthetic peptide (LifeTein)

binding result [1]: binds
B5: H4(14–25)K20me2 peptide (peptide)
peptide: GAKRHRK(dimethyl)VLRDNY
notes: histone H4, residues 14-25; additional C-terminal tyrosine for spectroscopic quantification; also called H4K20me2 peptide; source: synthetic peptide (LifeTein)
